B1: Protein C-ets-1, residues 55 to 135; numbered along this chain, P14921 (parent)
chain: GFTKEQQRLGIPKDPRQWTETHVRDWVMWAVNEFSLKGVDFQKFCMNGAALCALGKDCFLELAPDFVGDILWEHLEILQKE

Variants of: B1
Assay: abundance fitness (aPCA) (normalised: wild type 0, dead -1); higher = more abundant; growth selection in yeast, the domain comes from the species named
Conditions: Homo sapiens

Abundance fitness: each site, then its substitutions
G55: V -0.448 | P 0.01 | Q -0.08 | Y -0.502 | R -0.04 | T 0.041
V67: Y -0.319 | K -0.305 | Q -0.069 | L -0.256 | D -0.138 | G -0.018 | I -0.159 | R -0.167 | F -0.267 | N -0.242 | A -0.062 | E 0.081 | T -0.057 | C -0.04 | S -0.002 | H -0.284 | W -0.414
D57: K 0.017 | E 0.001 | A -0.049 | W -0.464 | L -0.216 | S -0.027 | V -0.097 | R -0.063 | I -0.185 | F -0.303 | H -0.049 | P -0.109 | G -0.083 | T -0.058 | Q -0.073 | C -0.106 | Y -0.326 | N -0.02 | M -0.158
H74: E -0.027 | Y -0.454 | L -0.198 | F -0.4 | N -0.043 | G -0.346 | D -0.214 | M -0.271 | K -0.273 | W -0.611 | T -0.265 | A -0.135 | R -0.222 | P -0.794 | V -0.419 | C -0.137 | Q -0.02 | S -0.08
C58: Y 0.008 | F -0.096 | H 0.039 | A 0.049 | L -0.026 | T 0.016 | I -0.094 | V 0.018 | M -0.009 | S 0.035 | Q 0.045 | D 0.056 | N 0.033 | R 0.023 | W -0.101 | G 0.049 | K -0.007 | E 0.05
L60: K 0.043 | W -0.43 | T 0.001 | H -0.052 | D -0.23 | Q 0.027 | M -0.067 | F -0.087 | Y -0.058 | R -0.042 | G -0.1 | C -0.091 | E -0.113 | P -0.628 | A -0.009 | N -0.117
P64: K -0.6 | M -1.06 | L -0.861 | S -0.202 | G 0.032 | H -0.34 | T -0.194 | E -0.239 | N -0.296 | F -0.896 | V -0.836 | I -0.891 | W -0.938 | Y -0.728 | Q -0.288
L71: D -0.657 | W -0.946 | N -0.128 | M -0.176 | S -0.805 | R -0.979 | C -0.834 | F -0.697 | E -0.881 | P -0.891 | Q -0.938 | V -1.05 | K -0.978 | G -0.932 | A -1.15 | T -0.883
E61: L -0.248 | R -0.033 | V -0.52 | D -0.013 | N -0.022 | F -0.772 | H -0.089 | P -0.234 | M -0.286 | C -0.202 | I -0.685 | A -0.012 | K 0.066 | Y -0.908 | W -0.908 | S -0.011
W72: D -1.07 | Q -0.804 | R -0.577 | T -1 | Y 0.11 | F -0.098 | I -1.06 | H -0.361 | C -0.62 | A -0.52 | L -0.316 | V -0.918 | S -0.735 | P -1.15 | M -0.389 | N -0.746
D65: F -0.221 | M -0.019 | V -0.043 | T 0.027 | Y -0.04 | N 0.084 | P 0.076 | E 0.01 | L -0.09 | H -0.09 | W -0.311 | S 0.006 | G 0.024 | C -0.057 | A 0.004 | K -0.01 | I -0.008
G68: E -0.994 | K -0.678 | W -0.655 | D -0.792 | T -0.204 | L -0.549 | V -0.261 | H -0.541 | Y -0.654 | N -0.265 | C -0.156 | A -0.116 | Q -0.727 | S -0.124
D69: Q -0.03 | S -0.053 | M -0.055 | G -0.059 | H -0.153 | E -0.035 | C -0.167 | Y -0.038 | F -0.301 | T -0.134 | R -0.09 | K -0.057 | A -0.031 | P 0.015 | N -0.002 | L -0.057 | I -0.038 | V -0.098 | W -0.262
A63: T -0.134 | S -0.114 | M -0.115 | Q -0.282 | R -0.924 | Y -0.299 | W -0.014 | K -0.635 | P -1.01 | H -0.096 | L -0.016 | D -0.873 | I -0.038 | C 0.02 | N -0.399 | G -0.262 | V 0.007
I70: A -0.105 | Q -0.035 | F -0.17 | V -0.038 | T -0.008 | W -0.398 | E -0.365 | M -0.102 | L -0.077 | R -0.036 | N -0.546 | D -0.532 | S -0.228 | Y -0.146 | K -0.065 | G -0.705 | C -0.088 | P -0.289
L62: I -0.049 | R -0.103 | F -0.298 | C -0.265 | S -0.401 | N -0.419 | V -0.34 | Q -0.3 | E -0.655 | H -0.438 | Y -0.141 | A -0.434 | P -0.954 | K -0.195 | G -0.461 | D -0.968
F66: T 0.037 | E -0.002 | I 0.021 | P 0.048 | S 0.036 | K 0.053 | H 0.095 | L -0.022 | M -0.032 | C -0.031 | A 0.02 | N 0.073 | D 0.051 | R 0.033
K56: T -0.878 | P -0.493 | C -0.814 | H -0.033 | L -0.635 | R -0.004 | Y -0.134 | M -0.357 | F -0.865 | S -0.7 | V -0.558 | G -0.851 | I -0.702 | A -0.482 | D -0.979 | W -0.729
F59: I -0.414 | W -0.318 | V -0.467 | K -0.882 | C -0.65 | S -0.918 | G -0.95 | R -0.496 | Q -0.836 | E -0.944 | T -0.963 | H -0.953 | A -0.928 | P -0.984 | Y -0.869 | L -0.252 | D -0.782 | M -0.239 | N -0.494
L75: K -0.466 | H -0.914 | C -0.964 | G -0.935 | E -0.952 | D -0.91 | I -0.21 | N -0.697 | A -0.921 | M -0.169
E73: M -0.277 | I -0.651 | F -0.251 | C -0.252 | G -0.08 | V -0.546 | K 0.004 | T -0.19 | W -0.142 | A -0.079 | L -0.246 | H -0.315 | D 0.04 | Q -0.032 | R -0.088 | P -0.898 | Y -0.319

From the Human Domainome abundance scans (Beltran et al. 2025)
